Source: PMC3984498

Molecular target: V[2]-TRF2ΔBΔM
Assay: split reporter

Which PCA fluorescence lower than with wild-type TRF2 does the source give for “Venus fragment-tagged Ku70 (V[1]-Ku70 / V[2]-Ku70) (from UniProt P12956 1-609) (natural protein)” here?
Its PCA fluorescence lower than with wild-type TRF2 is 45%.
